Source: patent publication US20120172293A1 (Takeda / Millennium, published 2012)
Starred links: 1 amine or outer side, 2 acyl side, 3 side chain; linkers in the order of their positions; H or OH if unused. Non-standard residues stand in square brackets, D forms with d. *: point of attachment. Phe(4-NH2) = Nc1ccc(C[C@H](N)C(=O)O)cc1; 1Nal = N[C@@H](Cc1cccc2ccccc12)C(=O)O; Arg(Me) = CNC(=N)NCCC[C@H](N)C(=O)O; tBuAla = CC(C)(C)C[C@H](N)C(=O)O; 4Pal = N[C@@H](Cc1ccncc1)C(=O)O; Cha = N[C@@H](CC1CCCCC1)C(=O)O; Suc = O=C(CCC(=O)[*:2])[*:1]; dIva = CC[C@@](C)(N)C(=O)O; Iva = CC[C@](C)(N)C(=O)O; Dap = NC[C@H](N)C(=O)O; Aib = CC(C)(N)C(=O)O; Bz = O=C(c1ccccc1)*; Ahx = NCCCCCC(=O)O

B1: Ac-[Acp22, Glu23, D-Pro24, Cha27,28,36, Lys30, Aib31]-PYY(22-36) (peptide)
peptide: Ac-[Ahx]E[dP]RH[Cha][Cha]NK[Aib]TRQR[Cha]-NH2
SMILES: CC(=O)NCCCCCC(=O)N[C@@H](CCC(=O)O)C(=O)N1CCC[C@@H]1C(=O)N[C@@H](CCCNC(=N)N)C(=O)N[C@@H](Cc1c[nH]cn1)C(=O)N[C@@H](CC1CCCCC1)C(=O)N[C@@H](CC1CCCCC1)C(=O)N[C@@H](CC(N)=O)C(=O)N[C@@H](CCCCN)C(=O)NC(C)(C)C(=O)N[C@H](C(=O)N[C@@H](CCCNC(=N)N)C(=O)N[C@@H](CCC(N)=O)C(=O)N[C@@H](CCCNC(=N)N)C(=O)N[C@@H](CC1CCCCC1)C(N)=O)[C@@H](C)O
B2: Ac-[D-Pro24, D-Iva26, Cha27,28,36, Aib31]-PYY(23-36) (peptide)
peptide: Ac-S[dP]R[dIva][Cha][Cha]NL[Aib]TRQR[Cha]-NH2
SMILES: CC[C@@](C)(NC(=O)[C@H](CCCNC(=N)N)NC(=O)[C@H]1CCCN1C(=O)[C@H](CO)NC(C)=O)C(=O)N[C@@H](CC1CCCCC1)C(=O)N[C@@H](CC1CCCCC1)C(=O)N[C@@H](CC(N)=O)C(=O)N[C@@H](CC(C)C)C(=O)NC(C)(C)C(=O)N[C@H](C(=O)N[C@@H](CCCNC(=N)N)C(=O)N[C@@H](CCC(N)=O)C(=O)N[C@@H](CCCNC(=N)N)C(=O)N[C@@H](CC1CCCCC1)C(N)=O)[C@@H](C)O
B3: Benzoyl-[Cha27,36, Ile28,31, Phe(4NH2)30]-PYY(25-36) (peptide)
peptide: Bz-RH[Cha]IN[Phe(4-NH2)]ITRQR[Cha]-NH2
SMILES: CC[C@H](C)[C@H](NC(=O)[C@H](CC1CCCCC1)NC(=O)[C@H](Cc1c[nH]cn1)NC(=O)[C@H](CCCNC(=N)N)NC(=O)c1ccccc1)C(=O)N[C@@H](CC(N)=O)C(=O)N[C@@H](Cc1ccc(N)cc1)C(=O)N[C@H](C(=O)N[C@H](C(=O)N[C@@H](CCCNC(=N)N)C(=O)N[C@@H](CCC(N)=O)C(=O)N[C@@H](CCCNC(=N)N)C(=O)N[C@@H](CC1CCCCC1)C(N)=O)[C@@H](C)O)[C@@H](C)CC
B4: Benzoyl-[Cha27,36, Ile28, Arg(Me)31]-PYY(25-36) (peptide)
peptide: Bz-RH[Cha]INL[Arg(Me)]TRQR[Cha]-NH2
SMILES: CC[C@H](C)[C@H](NC(=O)[C@H](CC1CCCCC1)NC(=O)[C@H](Cc1c[nH]cn1)NC(=O)[C@H](CCCNC(=N)N)NC(=O)c1ccccc1)C(=O)N[C@@H](CC(N)=O)C(=O)N[C@@H](CC(C)C)C(=O)N[C@@H](CCCNC(=N)NC)C(=O)N[C@H](C(=O)N[C@@H](CCCNC(=N)N)C(=O)N[C@@H](CCC(N)=O)C(=O)N[C@@H](CCCNC(=N)N)C(=O)N[C@@H](CC1CCCCC1)C(N)=O)[C@@H](C)O
B5: Ac-[D-Pro24, Iva25, Cha27,28,36, Aib31]-PYY(23-36) (peptide)
peptide: Ac-S[dP][Iva]H[Cha][Cha]NL[Aib]TRQR[Cha]-NH2
SMILES: CC[C@](C)(NC(=O)[C@H]1CCCN1C(=O)[C@H](CO)NC(C)=O)C(=O)N[C@@H](Cc1c[nH]cn1)C(=O)N[C@@H](CC1CCCCC1)C(=O)N[C@@H](CC1CCCCC1)C(=O)N[C@@H](CC(N)=O)C(=O)N[C@@H](CC(C)C)C(=O)NC(C)(C)C(=O)N[C@H](C(=O)N[C@@H](CCCNC(=N)N)C(=O)N[C@@H](CCC(N)=O)C(=O)N[C@@H](CCCNC(=N)N)C(=O)N[C@@H](CC1CCCCC1)C(N)=O)[C@@H](C)O
B6: Ac-[D-Pro24, Iva26, Cha27,28,36, Aib31]-PYY(23-36) (peptide)
peptide: Ac-S[dP]R[Iva][Cha][Cha]NL[Aib]TRQR[Cha]-NH2
SMILES: CC[C@](C)(NC(=O)[C@H](CCCNC(=N)N)NC(=O)[C@H]1CCCN1C(=O)[C@H](CO)NC(C)=O)C(=O)N[C@@H](CC1CCCCC1)C(=O)N[C@@H](CC1CCCCC1)C(=O)N[C@@H](CC(N)=O)C(=O)N[C@@H](CC(C)C)C(=O)NC(C)(C)C(=O)N[C@H](C(=O)N[C@@H](CCCNC(=N)N)C(=O)N[C@@H](CCC(N)=O)C(=O)N[C@@H](CCCNC(=N)N)C(=O)N[C@@H](CC1CCCCC1)C(N)=O)[C@@H](C)O
B7: Benzoyl-[Cha27,28,36, Aib31]-PYY(25-36) (peptide)
peptide: Bz-RH[Cha][Cha]NL[Aib]TRQR[Cha]-NH2
SMILES: CC(C)C[C@H](NC(=O)[C@H](CC(N)=O)NC(=O)[C@H](CC1CCCCC1)NC(=O)[C@H](CC1CCCCC1)NC(=O)[C@H](Cc1c[nH]cn1)NC(=O)[C@H](CCCNC(=N)N)NC(=O)c1ccccc1)C(=O)NC(C)(C)C(=O)N[C@H](C(=O)N[C@@H](CCCNC(=N)N)C(=O)N[C@@H](CCC(N)=O)C(=O)N[C@@H](CCCNC(=N)N)C(=O)N[C@@H](CC1CCCCC1)C(N)=O)[C@@H](C)O
B8: Ac-[D-Pro24, Cha27,28,36, D-Iva29, Aib31]-PYY(23-36) (peptide)
peptide: Ac-S[dP]RH[Cha][Cha][dIva]L[Aib]TRQR[Cha]-NH2
SMILES: CC[C@@](C)(NC(=O)[C@H](CC1CCCCC1)NC(=O)[C@H](CC1CCCCC1)NC(=O)[C@H](Cc1c[nH]cn1)NC(=O)[C@H](CCCNC(=N)N)NC(=O)[C@H]1CCCN1C(=O)[C@H](CO)NC(C)=O)C(=O)N[C@@H](CC(C)C)C(=O)NC(C)(C)C(=O)N[C@H](C(=O)N[C@@H](CCCNC(=N)N)C(=O)N[C@@H](CCC(N)=O)C(=O)N[C@@H](CCCNC(=N)N)C(=O)N[C@@H](CC1CCCCC1)C(N)=O)[C@@H](C)O
B9: 3-Carboxypropionyl-[Acp22, D-Pro24, Cha27,36, Leu(Me)28, Lys30, Aib31]-PYY(22-36) (peptide)
peptide: Suc-[Ahx]S[dP]RH[Cha][tBuAla]NK[Aib]TRQR[Cha]-NH2
SMILES: C[C@@H](O)[C@H](NC(=O)C(C)(C)NC(=O)[C@H](CCCCN)NC(=O)[C@H](CC(N)=O)NC(=O)[C@H](CC(C)(C)C)NC(=O)[C@H](CC1CCCCC1)NC(=O)[C@H](Cc1c[nH]cn1)NC(=O)[C@H](CCCNC(=N)N)NC(=O)[C@H]1CCCN1C(=O)[C@H](CO)NC(=O)CCCCCNC(=O)CCC(=O)O)C(=O)N[C@@H](CCCNC(=N)N)C(=O)N[C@@H](CCC(N)=O)C(=O)N[C@@H](CCCNC(=N)N)C(=O)N[C@@H](CC1CCCCC1)C(N)=O
B10: Benzoyl-[Cha27,36, Nal(1)28, Aib31]-PYY(25-36) (peptide)
peptide: Bz-RH[Cha][1Nal]NL[Aib]TRQR[Cha]-NH2
SMILES: CC(C)C[C@H](NC(=O)[C@H](CC(N)=O)NC(=O)[C@H](Cc1cccc2ccccc12)NC(=O)[C@H](CC1CCCCC1)NC(=O)[C@H](Cc1c[nH]cn1)NC(=O)[C@H](CCCNC(=N)N)NC(=O)c1ccccc1)C(=O)NC(C)(C)C(=O)N[C@H](C(=O)N[C@@H](CCCNC(=N)N)C(=O)N[C@@H](CCC(N)=O)C(=O)N[C@@H](CCCNC(=N)N)C(=O)N[C@@H](CC1CCCCC1)C(N)=O)[C@@H](C)O
B11: Benzoyl-[Cha27,36, Ile28, Dap31]-PYY(25-36) (peptide)
peptide: Bz-RH[Cha]INL[Dap]TRQR[Cha]-NH2
SMILES: CC[C@H](C)[C@H](NC(=O)[C@H](CC1CCCCC1)NC(=O)[C@H](Cc1c[nH]cn1)NC(=O)[C@H](CCCNC(=N)N)NC(=O)c1ccccc1)C(=O)N[C@@H](CC(N)=O)C(=O)N[C@@H](CC(C)C)C(=O)N[C@@H](CN)C(=O)N[C@H](C(=O)N[C@@H](CCCNC(=N)N)C(=O)N[C@@H](CCC(N)=O)C(=O)N[C@@H](CCCNC(=N)N)C(=O)N[C@@H](CC1CCCCC1)C(N)=O)[C@@H](C)O
B12: Benzoyl-[Cha27,36, Ile28, Phe(4NH2)31]-PYY(25-36) (peptide)
peptide: Bz-RH[Cha]INL[Phe(4-NH2)]TRQR[Cha]-NH2
SMILES: CC[C@H](C)[C@H](NC(=O)[C@H](CC1CCCCC1)NC(=O)[C@H](Cc1c[nH]cn1)NC(=O)[C@H](CCCNC(=N)N)NC(=O)c1ccccc1)C(=O)N[C@@H](CC(N)=O)C(=O)N[C@@H](CC(C)C)C(=O)N[C@@H](Cc1ccc(N)cc1)C(=O)N[C@H](C(=O)N[C@@H](CCCNC(=N)N)C(=O)N[C@@H](CCC(N)=O)C(=O)N[C@@H](CCCNC(=N)N)C(=O)N[C@@H](CC1CCCCC1)C(N)=O)[C@@H](C)O
B13: Benzoyl-[Cha27,36, Ile28, Pya(4)31]-PYY(25-36) (peptide)
peptide: Bz-RH[Cha]INL[4Pal]TRQR[Cha]-NH2
SMILES: CC[C@H](C)[C@H](NC(=O)[C@H](CC1CCCCC1)NC(=O)[C@H](Cc1c[nH]cn1)NC(=O)[C@H](CCCNC(=N)N)NC(=O)c1ccccc1)C(=O)N[C@@H](CC(N)=O)C(=O)N[C@@H](CC(C)C)C(=O)N[C@@H](Cc1ccncc1)C(=O)N[C@H](C(=O)N[C@@H](CCCNC(=N)N)C(=O)N[C@@H](CCC(N)=O)C(=O)N[C@@H](CCCNC(=N)N)C(=O)N[C@@H](CC1CCCCC1)C(N)=O)[C@@H](C)O
B14: Ac-[D-Pro24, D-Iva25, Cha27,28,36, Aib31]-PYY(23-36) (peptide)
peptide: Ac-S[dP][dIva]H[Cha][Cha]NL[Aib]TRQR[Cha]-NH2
SMILES: CC[C@@](C)(NC(=O)[C@H]1CCCN1C(=O)[C@H](CO)NC(C)=O)C(=O)N[C@@H](Cc1c[nH]cn1)C(=O)N[C@@H](CC1CCCCC1)C(=O)N[C@@H](CC1CCCCC1)C(=O)N[C@@H](CC(N)=O)C(=O)N[C@@H](CC(C)C)C(=O)NC(C)(C)C(=O)N[C@H](C(=O)N[C@@H](CCCNC(=N)N)C(=O)N[C@@H](CCC(N)=O)C(=O)N[C@@H](CCCNC(=N)N)C(=O)N[C@@H](CC1CCCCC1)C(N)=O)[C@@H](C)O
B15: Piperidinocarbonyl-[Glu23, D-Pro24, Pya(4)26, Cha27,36, Aib28,31, Lys30]-PYY(23-36) (peptide)
peptide: Piperidinocarbonyl-E[dP]R[4Pal][Cha][Aib]NK[Aib]TRQR[Cha]-NH2

Each binder was assayed against human Y2 receptor (human) (UniProt P49146) (assay: cell-based or functional assay).
Chain of human Y2 receptor (human) (P49146 whole entry): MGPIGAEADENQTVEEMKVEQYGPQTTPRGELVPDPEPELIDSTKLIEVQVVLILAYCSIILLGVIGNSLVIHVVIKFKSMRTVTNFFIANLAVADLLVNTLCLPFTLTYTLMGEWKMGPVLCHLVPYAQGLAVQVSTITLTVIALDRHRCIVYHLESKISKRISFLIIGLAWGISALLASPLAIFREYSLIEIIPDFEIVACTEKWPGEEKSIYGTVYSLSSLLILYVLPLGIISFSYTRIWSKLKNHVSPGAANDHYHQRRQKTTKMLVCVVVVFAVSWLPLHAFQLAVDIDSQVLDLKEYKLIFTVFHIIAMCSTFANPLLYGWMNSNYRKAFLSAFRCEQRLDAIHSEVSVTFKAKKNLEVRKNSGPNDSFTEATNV

Binder | GBA EC50 Ratio (vs PYY(3-36)), [35S]GTPγS
B1 | 1.1
B2 | 13
B3 | 6.6
B4 | 15
B5 | 3.7
B6 | 4.2
B7 | 18
B8 | 37
B9 | 1.2
B10 | 25
B11 | 28
B12 | 5.4
B13 | 8.5
B14 | 11
B15 | 2.4

These binders were tested against human Y2 receptor (human) (UniProt P49146) (assay: RBA: [125I]-PYY displacement, hY2R/CHO membranes).

Binder | IC50 Ratio (vs PYY(3-36))
B1 | 1.7
B2 | 19
B3 | 12
B4 | 18
B5 | 4.5
B6 | 5.2
B7 | 28
B8 | 71
B9 | 1.7
B10 | 34
B11 | 37
B12 | 5
B13 | 7.6
B14 | 14
B15 | 3.3
